Consider nine molecules from patent US20250250357A1 (NANJING ZAIMING PHARMACEUTICAL, published 2025).

Positions count from the first letter of the chain named. Names and notes keep the numbering of the source. Read-outs that look alike come from different tables or passages of the source.

Test [1] deals with T1, human MSLN-FL-his protein (human, UniProt Q13421 296-580).
T1 construct: made in HEK293E cells, purified on nickel column; also called hMSLN-FL-his; human MSLN full-length protein; not shown: His tag
Kind of test: competitive ELISA; row F7.2.3. A general note: In an ELISA, binding on a coated surface is turned into a signal by an enzyme label.

Test [2] addresses T1, human MSLN-FL-his protein. Kind of test: competitive ELISA; row Tab021.
Test [3] concerns the target T1, human MSLN-FL-his protein. Kind of test: competitive ELISA; row Tab142.
The target of test [4] is T1, human MSLN-FL-his protein. Kind of test: competitive ELISA; row F7.18.10.
In test [5] the target is T1, human MSLN-FL-his protein. The experiment in a line: SPR (Biacore), antibody captured on Protein A chip.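 Further: flow cell at 25 °C, antigen injected for 240 s at five concentrations from 200 nM downward, dissociation followed up to 600 s, double-referenced, fitted with Langmuir 1:1 model.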
For test [6], the target named is human MSLN on OVCAR3 tumor cells (human, UniProt Q13421 296-598). Kind of test: FACS, OVCAR3 cells. (In general: A flow cytometer gives signals particle by particle.)
human MSLN on OVCAR3 tumor cells, sequence (Q13421 other isoform, or with tags, fused parts or gaps): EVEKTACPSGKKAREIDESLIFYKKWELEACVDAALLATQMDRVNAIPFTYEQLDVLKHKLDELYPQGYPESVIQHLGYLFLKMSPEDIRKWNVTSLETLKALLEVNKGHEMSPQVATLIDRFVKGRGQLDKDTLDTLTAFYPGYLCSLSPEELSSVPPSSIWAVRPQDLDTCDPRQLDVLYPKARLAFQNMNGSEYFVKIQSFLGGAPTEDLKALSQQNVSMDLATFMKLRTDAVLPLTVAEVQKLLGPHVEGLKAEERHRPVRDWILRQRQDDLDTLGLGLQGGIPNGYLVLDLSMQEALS
For test [7], the target named is T2, human MSLN-R3 on HEK293T-hMSLN-R3 recombinant cells (human, UniProt Q13421 487-606).
T2 construct: the C-terminal limit is uncertain; also called human MSLN-R3 membrane protein
T2 sequence (Q13421 495-614): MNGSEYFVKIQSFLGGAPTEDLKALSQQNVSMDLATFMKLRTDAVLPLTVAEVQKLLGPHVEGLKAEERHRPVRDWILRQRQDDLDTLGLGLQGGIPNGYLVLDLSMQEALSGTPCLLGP
Kind of test: FACS, HEK293T-hMSLN-R3 cells.

Test [8] concerns the target T3, monkey MSLN on HEK293T-monkey MSLN recombinant cells (monkey).
T3 construct: Full-length precursor as transfected; processing on the cell is not described; also called HEK293-monkey MSLN
T3 chain: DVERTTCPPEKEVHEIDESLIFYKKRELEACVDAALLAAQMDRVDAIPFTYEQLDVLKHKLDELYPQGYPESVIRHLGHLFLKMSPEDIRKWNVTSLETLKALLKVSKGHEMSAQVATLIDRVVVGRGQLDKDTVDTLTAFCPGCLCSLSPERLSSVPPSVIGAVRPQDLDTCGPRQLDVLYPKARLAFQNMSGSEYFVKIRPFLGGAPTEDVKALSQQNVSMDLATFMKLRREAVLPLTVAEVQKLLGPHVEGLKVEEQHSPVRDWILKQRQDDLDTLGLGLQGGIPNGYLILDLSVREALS
The experiment in a line: FACS, HEK293T-monkey MSLN cells.

Test [9] addresses T4, human MSLN-hFc protein (Acro, Cat. No. MSN-H5253) (human, UniProt Q13421 296-580).
T4 construct: bought
Kind of test: ELISA, coated human MSLN-hFc.

Test [10] addresses T2, human MSLN-R3 on HEK293T-hMSLN-R3 …. The experiment in a line: FACS, HEK293T-hMSLN-R3 cells. The source holds these as a separate data set.
Test [11] addresses T5, human MSLN-R3 protein (human, UniProt Q13421 487-598).
T5 construct: also called hMSLN-R3
Kind of test: ELISA, MSLN-R3 coated, antibody 1 nM.

The target of test [12] is T5, human MSLN-R3 protein. Kind of test: ELISA, MSLN-R3 coated, antibody 10 nM.
Test [13] deals with T5, human MSLN-R3 protein. Kind of test: ELISA, MSLN-R3 coated, antibody 0.1 nM.
Test [14] deals with T5, human MSLN-R3 protein. Kind of test: ELISA, MSLN-R3 coated, antibody 100 nM.
The target of test [15] is T5, human MSLN-R3 protein. The experiment in a line: ELISA, MSLN-R3 coated, antibody 0.01 nM.
Test [16] deals with T5, human MSLN-R3 protein. Kind of test: ELISA, MSLN-R3 coated, antibody 0.001 nM.
In test [17] the target is T5, human MSLN-R3 protein. Kind of test: ELISA, MSLN-R3 coated, antibody 0.0001 nM.
Test [18] concerns the target T2, human MSLN-R3 on HEK293T-hMSLN-R3 …. The experiment in a line: FACS, HEK293T-hMSLN-R3 cells. The source holds these as a separate data set.
The target is the same in test [19]. The experiment in a line: FACS, HEK293T-hMSLN-R3 cells. This is another data set of the same source.
Test [20] has the same target. Kind of test: FACS, HEK293T-hMSLN-R3 cells. This is another data set of the same source.
The target of test [21] is T6, human MSLN-FL-his protein (human, UniProt Q13421 296-580).
T6 construct: also called hMSLN-FL-his; human MSLN full-length protein
The experiment in a line: SPR (Biacore), antibody captured on Protein A, MSLN-FL-his injected. In general terms: In SPR one partner is held on a chip, and binding of the other changes the refractive index at the surface.

Usually Kd stands for the constant that tells how readily two partners part at equilibrium. As usually defined, the koff is the rate constant with which the complex falls apart. The term kon denotes the rate constant with which the complex forms. Usually EC50 stands for the midpoint of the concentration-response curve.

T5 sequence (Q13421 495-606): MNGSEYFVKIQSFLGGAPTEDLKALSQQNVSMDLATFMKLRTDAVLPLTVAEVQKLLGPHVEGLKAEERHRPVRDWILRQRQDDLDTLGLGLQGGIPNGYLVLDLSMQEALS
T4 sequence (Q13421 other isoform, or with tags, fused parts or gaps limits assumed): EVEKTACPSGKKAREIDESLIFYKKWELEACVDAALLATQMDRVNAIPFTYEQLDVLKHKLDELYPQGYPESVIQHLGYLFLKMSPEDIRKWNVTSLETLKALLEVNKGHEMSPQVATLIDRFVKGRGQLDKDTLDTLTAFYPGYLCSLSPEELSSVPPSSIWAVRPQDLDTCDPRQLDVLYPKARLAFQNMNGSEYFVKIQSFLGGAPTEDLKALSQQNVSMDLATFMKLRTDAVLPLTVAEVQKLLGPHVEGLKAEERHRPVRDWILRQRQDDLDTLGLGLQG

B1: S009-F7.18.10 (antibody, human IgG1, kappa, V domains shown)
VH: QVQLQQSGAELVRPGTSVKVSCKASGYAFTNYLIEWVKQRPGQGLEWIGVINPGSGGTKYNEKFKGKATLTADKSSSTAYMQLSSLTSEDSAVYFCASDYDYDPFAYWGQGTLVTVSA
VL: DIVMTQSHKFMSTSVGDRVSITCKASQDVSTAVAWYQRKPGQSPKLLIYWASTRHTGVPDRFTGSGSGTDYTLTISYMQAEDLALYYCQQHYSTPYTFGGGTKLEIKR
notes: human-murine chimeric antibody, human IgG1/kappa constant regions
Consider B1, for which the competition rate is -29.4% in test [1], 9.2% in test [2], 94.4% in [3] and 97% in [4]. The molecule also yielded a Kd in [5] of 0.64 nM. The koff in [5] was 0.00117 s⁻¹. For the same molecule, the on-rate (kon) in test [5] was 1.83e+06 M⁻¹ s⁻¹.

B2: F7.33.24 (scFv)
chain: QVQLQQPGTELVKPGASVKLSCKASGYTFTSYWMHWVKQRPGQGLEWIGNVNPSNGGSNYNEKFKNKATLTVDKSSSTADMQLNSLTSEDSAVYYCAPHYIGSRPGFAYWGQGTLVTVSGGGGGSGGGGSGGGGSDIVMTQSQKFMSTSVGDRVSVTCKASQNVGTNIAWYQQKPGQSPKALIYSASYRYSGVPDRFTGSGSGTDFTLTITNVQSEDLAEYFCQQYNSYPLTFGGGTKVEIK
With B2, the results for the EC50 in test [6], in [7] and in [8] were 4.75 nM, 1.63 nM and 7.97 nM, respectively. Moreover, the figures for the Maximum_MFI in test [6], in [7] and in test [8] were 2260 MFI, 1490 MFI and 8910 MFI, respectively.

B3: F3.38.10-L1H5 (scFv, not shown: small tags and cut ends)
scFv: DIVMTQTPLSLPVTPGEPASISCRSSQSLIHSDGNTYLQWYLQKPGQSPQLLIYKVSNRFSGVPDRFSGSGSGTDFTLKISRVEAEDVGVYYCSQTTHVPFTFGQGTKLEIKGGGGSGGGGSGGGGSEVQLVQSGAEVKKPGASVKVSCKASGYIFTDYYMNWVRQAHGQRLEWMGVINPKNGVISHNQKFKGRVTITVDKSANTAYMELSSLRSEDTAVYYCANYGSRFYAMDYWGQGTTVTVSS
As to B3, the binding result in test [9] is “no binding (tested: up to 100 nM)”.

B4: S009-F7.2.3 (antibody, human IgG1, kappa, V domains shown)
VH: ELQLVESGGDLVKPGGSLKLSCAASGFTFSSNGMSWLRQTPDKRLEWVATISSGGRYTYYPDSVKGRFTISRDNAKNTLYLQMSSLKSEDTAMYYCARRGIYDYFDCWGQGTTLTVSS
VL: DIQMTQSPASLSISVGETVTITCRASENIHSSLAWYQQKQGKSPQLLVYAATNLADGVPSRFSGSGSGSQYSLKINSLQSEDFGTYYCQHFWGTPWTFGGGTKLDIKR
notes: as for B1
For B4, the competition rate in test [1] is 93.3%; in test [2] it was -3.83%; in [3], 3.48%; in test [4], 54.1%. For the same molecule, in test [5], the equilibrium dissociation constant (Kd) stood at 13.2 nM. This molecule also gave a dissociation rate constant (koff) in [5] of 0.00851 s⁻¹. Moreover, the kon in [5] stood at 643000 M⁻¹ s⁻¹.

B5: F3.38.10-L2H3a (scFv, not shown: small tags and cut ends)
scFv: DIVMTQSPDSLAVSLGERATINCRSSQSLIHSDGNTYLQWYQQKPGQSPKLLIYKVSNRFSGVPDRFSGSGSGTDFTLTISSLQAEDVAVYYCSQTTHVPFTFGQGTKLEIKGGGGSGGGGSGGGGSEVQLVQSGAEVKKPGASVKVSCKASGYIFTDYYMNWVRQAPGQRLEWMGVINPKQGVISHNQKFKGRVTITVDKSANTAYMELSSLRSEDTAVYYCANYGSRFYAMDYWGQGTTVTVSS
notes: also called S009-F3.38.10 humanized antibody VL2 + VH3a
On to B5, for which the EC50 in test [10] amounted to 166 nM. In test [10], the Maximum_MFI is 795 MFI. In addition, the OD450 nm with human MSLN-R3 protein [11] is 0.12 OD; with human MSLN-R3 protein [12], 0.72 OD; with human MSLN-R3 protein [13] it was 0.06 OD; in the test with human MSLN-R3 protein [14] it was 1.88 OD; with human MSLN-R3 protein [15], 0.05 OD; in the test with human MSLN-R3 protein [16], 0.05 OD. In the test with human MSLN-R3 protein [17], this molecule gave an OD450 nm of 0.05 OD.

B6: F3.38.10-L2H3a (scFv, not shown: small tags and cut ends)
scFv: B5 scFv
Consider B6, for which the binding result in test [9] is given as “no binding (tested: up to 100 nM)”.

B7: Tab111 (scFv, not shown: small tags and cut ends)
scFv: DVVMTQTPASVSEPVGGTVTIKCQASQRISSYLSWYQQKPGQRPKLLIFGASTLASGVPSRFKGSGSGTEYTLTISDLECADAATYYCQSYAYFDSNNWHAFGGGTEVVVGGGGSGGGGSGGGGSQQQLEESGGGLVKPEGSLTLTCKASGFDLGFYFYACWVRQAPGKGLEWIACIYTAGSGSTYYASWAKGRFTISKASSTTVTLQMTSLAAADTATYFCARSTANTRSTYYLNLWGPGTLVTVSS
notes: also called YP218 VL-(G4S)3-VH-his antibody; positive control
On to B7, for which the EC50 in test [18] is 1.22 nM; in test [19], 0.76 nM; in test [7] it was 0.76 nM; in [20] it was 1.6 nM; in test [10], 30.2 nM. Further, the Maximum_MFI in test [18] was 4970 MFI; in [19], 2120 MFI; in [7] it was 2120 MFI; in [20] it was 3070 MFI; in [10] it was 777 MFI. In addition, the OD450 nm in the test with human MSLN-R3 protein [11] stood at 0.25 OD; with human MSLN-R3 protein [12] it was 1.05 OD; in the test with human MSLN-R3 protein [13] it was 0.07 OD; with human MSLN-R3 protein [14], 1.89 OD; with human MSLN-R3 protein [15], 0.05 OD; in the test with human MSLN-R3 protein [16] it was 0.05 OD. This molecule came in with an OD450 nm in the test with human MSLN-R3 protein [17] of 0.05 OD.

B8: S009-F3.7.3 (antibody, human IgG1, kappa, V domains shown)
VH: EVNFEESGGGLVQPGGSMKLSCVASGFTFSNYWMNWVRQSPEKGLEWVAQIRLKSDNYATHYAESVKGRFTISRDDFKSSVYLQMNNLRAEDTGIYYCTVGTGGYWGQGTTLTVSS
VL: DIVLTQSPASLAMSLGKRATISCRASESVSIVGTNVIHWFQQKPGQPPKLLIYHASNLETGVPARFSGSGSGTDFTLTIDPVEEDDVAIYHCLQSRKIPWTFGGGTKLEIKR
notes: chimeric, human IgG1/kappa
Consider B8, for which, in test [21], the binding result is recorded as “no binding”.

B9: S009-F3.16.1 (antibody, human IgG1, kappa, V domains shown)
VH: B8 VH with N3K, T71S, F77S, T99S
VL: B8 VL with M13L, L15P, V32I, N35D, G72R, H91Y
notes: chimeric, human IgG1/kappa
On to B9, for which the binding result in test [21] is “no binding”.
